B1: HESX1 (parent)
chain: ENKPSTCSFSIERILGLDQKKDCV
B2: EFHC1 (parent)
chain: NIYYYLEDDSMSVIEPVVENSGIL

Variants of: B1
Assay: protein stability index of a GFP-peptide fusion (GPS, HEK-293T) (PSI 1-6); higher = more stable
Details: c terminus: a fixed tail appended
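Note: lentivirally expressed fusions sorted by FACS into six bins by GFP to DsRed ratio, PSI derived from sequencing read proportions per bin multiplied by bin number.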

Q: Which protein stability index does the source give for ENKPSTCSFSIERILTLDQKKDCV [G16T] here?
A: Its protein stability index is 3.69.

Q: With ENKPSTCSFSIERILWLDQKKDCV [G16W] as the variant, how does the protein stability index read?
A: The protein stability index was 2.32.

Q: For ENKPSTCSFSIERILYLDQKKDCV [G16Y], which protein stability index is on record?
A: Its protein stability index is 2.28.

Q: Which protein stability index does the source give for ENKPSTCSFSIERILSLDQKKDCV [G16S] here?
A: Its protein stability index is 3.28.

Q: With ENKPSTCSFSIERILGLDQVKDCV [K20V] as the variant, how does the protein stability index read?
A: The protein stability index was 2.25.

Q: For ENKPSTCSFSIERILGLDQQKDCV [K20Q], which protein stability index is on record?
A: The protein stability index was 2.56.

Q: For ENKPSTCSFSIERILGLDQTKDCV [K20T], which protein stability index is on record?
A: Its protein stability index is 2.53.

Q: With ENKPSTCSFSIERILGLDQIKDCV [K20I] as the variant, how does the protein stability index read?
A: Its protein stability index is 2.13.

Q: With ENKPSTCSFSIERILGLDQEKDCV [K20E] as the variant, how does the protein stability index read?
A: The protein stability index was 3.08.

Q: Which protein stability index does the source give for ENKPSTCSFSIERILGLDQMKDCV [K20M] here?
A: The protein stability index was 2.67.

Q: For ENKPSTCSFSIERILGLDQFKDCV [K20F], which protein stability index is on record?
A: The protein stability index was 2.22.

Q: Which protein stability index does the source give for ENKPSTCSFSIERILGLDQHKDCV [K20H] here?
A: The protein stability index was 2.47.

Q: Which protein stability index does the source give for ENKPSTCSFSIERILGLDQRKDCV [K20R] here?
A: The protein stability index was 2.41.

Q: Which protein stability index does the source give for ENKPSTCSFSIERILGLDQPKDCV [K20P] here?
A: The protein stability index was 2.75.

Q: Which protein stability index does the source give for ENKPSTCSFSIERILGLDQWKDCV [K20W] here?
A: Its protein stability index is 1.62.

Q: For ENKPSTCSFSIERILGLDQNKDCV [K20N], which protein stability index is on record?
A: The protein stability index was 2.71.

Q: With ENKPSTCSFSIERILGLDQCKDCV [K20C] as the variant, how does the protein stability index read?
A: The protein stability index was 2.52.

Q: Which protein stability index does the source give for ENKPSTCSFSIERILGLDQDKDCV [K20D] here?
A: The protein stability index was 3.27.

Q: Which protein stability index does the source give for ENKPSTCSFSIERILGLDQYKDCV [K20Y] here?
A: Its protein stability index is 1.97.

Q: Which protein stability index does the source give for ENKPSTCSFSIERILGLDQLKDCV [K20L] here?
A: Its protein stability index is 1.93.

Q: For ENKPSTCSFSIERILGLDQSKDCV [K20S], which protein stability index is on record?
A: Its protein stability index is 2.69.

Q: Which protein stability index does the source give for ENKPSTCSFSIERILGLDQAKDCV [K20A] here?
A: The protein stability index was 2.45.

Q: For ENKPSTCSFSIERILGLDQKKVCV [D22V], which protein stability index is on record?
A: Its protein stability index is 1.56.

Q: Which protein stability index does the source give for ENKPSTCSFSIERILGLDQKKACV [D22A] here?
A: The protein stability index was 2.51.

Q: For ENKPSTCSFSIERILGLDQKKPCV [D22P], which protein stability index is on record?
A: The protein stability index was 3.08.

Q: For ENKPSTCSFSIERILGLDQKKLCV [D22L], which protein stability index is on record?
A: The protein stability index was 1.5.

Q: Which protein stability index does the source give for ENKPSTCSFSIERILGLDQKKYCV [D22Y] here?
A: Its protein stability index is 2.14.

Q: With ENKPSTCSFSIERILGLDQKKICV [D22I] as the variant, how does the protein stability index read?
A: The protein stability index was 1.94.

Q: For ENKPSTCSFSIERILGLDQKKQCV [D22Q], which protein stability index is on record?
A: Its protein stability index is 2.73.

Q: For ENKPSTCSFSIERILGLDQKKCCV [D22C], which protein stability index is on record?
A: Its protein stability index is 2.12.

Q: With ENKPSTCSFSIERILGLDQKKTCV [D22T] as the variant, how does the protein stability index read?
A: Its protein stability index is 2.02.

Q: Which protein stability index does the source give for ENKPSTCSFSIERILGLDQKKMCV [D22M] here?
A: The protein stability index was 1.77.

Q: Which protein stability index does the source give for ENKPSTCSFSIERILGLDQKKHCV [D22H] here?
A: The protein stability index was 2.04.

Q: Which protein stability index does the source give for ENKPSTCSFSIERILGLDQKKKCV [D22K] here?
A: The protein stability index was 2.73.

Q: With ENKPSTCSFSIERILGLDQKKFCV [D22F] as the variant, how does the protein stability index read?
A: The protein stability index was 2.1.

Q: With ENKPSTCSFSIERILGLDQKKGCV [D22G] as the variant, how does the protein stability index read?
A: Its protein stability index is 2.78.

Q: With ENKPSTCSFSIERILGLDQKKRCV [D22R] as the variant, how does the protein stability index read?
A: The protein stability index was 3.08.

Q: For ENKPSTCSFSIERILGLDQKKWCV [D22W], which protein stability index is on record?
A: The protein stability index was 1.46.

Q: With ENKPSTCSFSIERILGLDQKKNCV [D22N] as the variant, how does the protein stability index read?
A: Its protein stability index is 2.9.

Q: For ENKPSTCSFSIERILGLDQKKECV [D22E], which protein stability index is on record?
A: Its protein stability index is 3.24.

Q: Which protein stability index does the source give for ENKPSTCSFSIERILGLDQKKSCV [D22S] here?
A: Its protein stability index is 3.41.

Q: For ENKPSTCSFSIERILGLDQKKDCK [V24K], which protein stability index is on record?
A: The protein stability index was 4.15.

Q: With ENKPSTCSFSIERILGLDQKKDCI [V24I] as the variant, how does the protein stability index read?
A: The protein stability index was 3.64.

Q: Which protein stability index does the source give for ENKPSTCSFSIERILGLDQKKDCW [V24W] here?
A: The protein stability index was 2.18.

Q: With ENKPSTCSFSIERILGLDQKKDCG [V24G] as the variant, how does the protein stability index read?
A: The protein stability index was 3.9.

Q: Which protein stability index does the source give for ENKPSTCSFSIERILGLDQKKDCC [V24C] here?
A: Its protein stability index is 3.49.

Q: Which protein stability index does the source give for ENKPSTCSFSIERILGLDQKKDCY [V24Y] here?
A: Its protein stability index is 2.74.

Q: For ENKPSTCSFSIERILGLDQKKDCF [V24F], which protein stability index is on record?
A: Its protein stability index is 2.91.

Q: For ENKPSTCSFSIERILGLDQKKDCL [V24L], which protein stability index is on record?
A: The protein stability index was 3.03.

Q: For ENKPSTCSFSIERILGLDQKKDCN [V24N], which protein stability index is on record?
A: The protein stability index was 3.79.

Q: With ENKPSTCSFSIERILGLDQKKDCH [V24H] as the variant, how does the protein stability index read?
A: The protein stability index was 4.64.

Q: For ENKPSTCSFSIERILGLDQKKDCS [V24S], which protein stability index is on record?
A: Its protein stability index is 2.88.

Q: Which protein stability index does the source give for ENKPSTCSFSIERILGLDQKKDCA [V24A] here?
A: The protein stability index was 3.81.

Q: With ENKPSTCSFSIERILGLDQKKDCQ [V24Q] as the variant, how does the protein stability index read?
A: The protein stability index was 3.81.

Q: For ENKPSTCSFSIERILGLDQKKDCP [V24P], which protein stability index is on record?
A: Its protein stability index is 3.14.

Q: For ENKPSTCSFSIERILGLDQKKDCE [V24E], which protein stability index is on record?
A: Its protein stability index is 4.25.

Q: For ENKPSTCSFSIERILGLDQKKDCR [V24R], which protein stability index is on record?
A: The protein stability index was 3.38.

Q: With ENKPSTCSFSIERILGLDQKKDCD [V24D] as the variant, how does the protein stability index read?
A: The protein stability index was 4.18.

Q: For ENKPSTCSFSIERILGLDQKKDCM [V24M], which protein stability index is on record?
A: Its protein stability index is 2.89.

Q: With ENKPSTCSFSIERILGLDQKKDCT [V24T] as the variant, how does the protein stability index read?
A: The protein stability index was 2.83.

Variants of: B2
Assay: as above
Details: c terminus: a fixed tail appended

Q: With NMYYYLEDDSMSVIEPVVENSGIL [I2M] as the variant, how does the protein stability index read?
A: Its protein stability index is 2.96.

Q: For NLYYYLEDDSMSVIEPVVENSGIL [I2L], which protein stability index is on record?
A: Its protein stability index is 2.05.

Q: With NCYYYLEDDSMSVIEPVVENSGIL [I2C] as the variant, how does the protein stability index read?
A: Its protein stability index is 2.29.

Q: For NHYYYLEDDSMSVIEPVVENSGIL [I2H], which protein stability index is on record?
A: Its protein stability index is 2.72.

Q: For NVYYYLEDDSMSVIEPVVENSGIL [I2V], which protein stability index is on record?
A: Its protein stability index is 2.13.

Q: With NSYYYLEDDSMSVIEPVVENSGIL [I2S] as the variant, how does the protein stability index read?
A: Its protein stability index is 3.4.

Q: For NKYYYLEDDSMSVIEPVVENSGIL [I2K], which protein stability index is on record?
A: Its protein stability index is 3.44.

Q: Which protein stability index does the source give for NEYYYLEDDSMSVIEPVVENSGIL [I2E] here?
A: The protein stability index was 3.79.

Q: With NRYYYLEDDSMSVIEPVVENSGIL [I2R] as the variant, how does the protein stability index read?
A: Its protein stability index is 3.03.

Q: Which protein stability index does the source give for NQYYYLEDDSMSVIEPVVENSGIL [I2Q] here?
A: Its protein stability index is 3.33.

Q: Which protein stability index does the source give for NTYYYLEDDSMSVIEPVVENSGIL [I2T] here?
A: Its protein stability index is 3.29.

Q: With NFYYYLEDDSMSVIEPVVENSGIL [I2F] as the variant, how does the protein stability index read?
A: Its protein stability index is 1.82.

Q: With NAYYYLEDDSMSVIEPVVENSGIL [I2A] as the variant, how does the protein stability index read?
A: The protein stability index was 2.86.

Q: For NDYYYLEDDSMSVIEPVVENSGIL [I2D], which protein stability index is on record?
A: The protein stability index was 2.62.

Q: With NGYYYLEDDSMSVIEPVVENSGIL [I2G] as the variant, how does the protein stability index read?
A: Its protein stability index is 3.21.

Q: Which protein stability index does the source give for NPYYYLEDDSMSVIEPVVENSGIL [I2P] here?
A: The protein stability index was 3.82.

Q: For NNYYYLEDDSMSVIEPVVENSGIL [I2N], which protein stability index is on record?
A: Its protein stability index is 3.23.

Q: Which protein stability index does the source give for TIYYYLEDDSMSVIEPVVENSGIL [N1T] here?
A: Its protein stability index is 1.4.

Q: For EIYYYLEDDSMSVIEPVVENSGIL [N1E], which protein stability index is on record?
A: The protein stability index was 2.48.

Q: Which protein stability index does the source give for GIYYYLEDDSMSVIEPVVENSGIL [N1G] here?
A: Its protein stability index is 2.08.

Q: Which protein stability index does the source give for WIYYYLEDDSMSVIEPVVENSGIL [N1W] here?
A: The protein stability index was 1.61.

Q: Which protein stability index does the source give for DIYYYLEDDSMSVIEPVVENSGIL [N1D] here?
A: Its protein stability index is 1.59.

Q: Which protein stability index does the source give for CIYYYLEDDSMSVIEPVVENSGIL [N1C] here?
A: The protein stability index was 1.54.

Q: With FIYYYLEDDSMSVIEPVVENSGIL [N1F] as the variant, how does the protein stability index read?
A: The protein stability index was 2.88.

Q: With LIYYYLEDDSMSVIEPVVENSGIL [N1L] as the variant, how does the protein stability index read?
A: The protein stability index was 1.92.

Q: Which protein stability index does the source give for RIYYYLEDDSMSVIEPVVENSGIL [N1R] here?
A: Its protein stability index is 1.32.

Q: Which protein stability index does the source give for MIYYYLEDDSMSVIEPVVENSGIL [N1M] here?
A: The protein stability index was 2.34.

Q: With SIYYYLEDDSMSVIEPVVENSGIL [N1S] as the variant, how does the protein stability index read?
A: Its protein stability index is 2.19.

Q: For PIYYYLEDDSMSVIEPVVENSGIL [N1P], which protein stability index is on record?
A: Its protein stability index is 2.15.

Q: Which protein stability index does the source give for KIYYYLEDDSMSVIEPVVENSGIL [N1K] here?
A: The protein stability index was 1.09.

Q: With QIYYYLEDDSMSVIEPVVENSGIL [N1Q] as the variant, how does the protein stability index read?
A: Its protein stability index is 2.83.

Q: With AIYYYLEDDSMSVIEPVVENSGIL [N1A] as the variant, how does the protein stability index read?
A: Its protein stability index is 2.06.

Q: For YIYYYLEDDSMSVIEPVVENSGIL [N1Y], which protein stability index is on record?
A: Its protein stability index is 1.81.

Q: With HIYYYLEDDSMSVIEPVVENSGIL [N1H] as the variant, how does the protein stability index read?
A: The protein stability index was 1.74.

Reference: the supplement of paper PMC10567573
